Values of other authors as cited in paper PMC10671529.

Legend:
HigB2 (Vibrio cholerae) = HigB2 (Vibrio cholerae) (UniProt Q9KMA6)
Im9 (Escherichia coli) = Im9 (Escherichia coli) (UniProt P13479)
UniProt P13479, sequence (P13479 whole entry): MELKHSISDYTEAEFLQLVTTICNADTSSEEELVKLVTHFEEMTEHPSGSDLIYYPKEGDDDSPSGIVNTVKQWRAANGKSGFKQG

UniProt Q9KMA6, sequence (Q9KMA6 whole entry): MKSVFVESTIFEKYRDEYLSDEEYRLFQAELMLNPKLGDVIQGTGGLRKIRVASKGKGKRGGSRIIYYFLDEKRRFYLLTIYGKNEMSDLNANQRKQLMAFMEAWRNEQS

Substance | Kd (HigB2 (Vibrio cholerae)) [pM] | Kd (Im9 (Escherichia coli)) [pM]
HigA2 (from UniProt Q9KMA5) | 3.1 | –
colicin E9 DNase (from UniProt P09883) | – | 0.023
